Source: patent publication US20210395344A1

target: COVID S1 RBD Fc fusion (Antigen 1) (SARS-CoV-2), P0DTC2; experiment: phage ELISA; settings: remark: other sources report otherwise

Binder | specificity ELISA, fold over background (fold over background) | specificity ELISA, percent binding relative to Acro S1 [%]
SARS-CoV-2 variant 1-31 (antibody, V domains shown) VH: EVQLLESGGGLVQPGGSLRLSCAASGFTFSSYAMNWVRQAPGKGLEWVSAISGSGGSTFYADSVKGRFTISRDNSKNTLYLQMNSLRAEDTAVYYCTRPPYGDYGDYWGQGTLVTVSS VL: QSALTQPASVSGSPGQSITISCTGTSSDVGKYNLVSWYQQHPGKAPKLMIYEGSQRPSGVSNRFSGSKSGNTASLTISGLQAEDEADYYCCSYAGSRTPVVFGGGTKLTVL | 1.3 | 4.3
SARS-CoV-2 variant 1-30 (antibody, V domains shown) VH: EVQLLESGGGLVQPGGSLRLSCAASGFTFSSYAMTWVRQAPGKGLEWVSAISGSGGSTFYADSVKGRFTISRDNSKNTLYLQMNSLRAEDTAVYYCTRPPYGDYGDYWGQGTLVTVSS VL: QSALTQPASVSGSPGQSITISCTGTSRDVGSYNLVSWYQQHPGKAPKLMIYEGTKRPSGVSNRFSGSKSGNTASLTISGLQAEDEADYYCCSYAGSRTPVVFGGGTKLTVL | 1.7 | 9.8
SARS-CoV-2 variant 1-5 (antibody, V domains shown) VH: EVQLLESGGGLVQPGGSLRLSCAASGFTFSSQAMSWVRQAPGKGLEWVSAISGSGGGTYYADSVKGRFTISRDNSKNTLYLQMNSLRAEDTAVYYCAKDRRFGEFDPWGQGTLVTVSS VL: QSALTQPASVSGSPGQSITISCTGTSSGVGSYNLVSWYQQHPGKAPKLMIYEASKRPSGVSNRFSGSKSGNTASLTISGLQAEDEADYYCCSYAGSYTFAVFGGGTKLTVL | 1.6 | 108
SARS-CoV-2 variant 1-32 (antibody, V domains shown) VH: EVQLLESGGGLVQPGGSLRLSCAASGFTFSSYAMYWVRQAPGKGLEWVSAISGSGGSTFYADSVKGRFTISRDNSKNTLYLQMNSLRAEDTAVYYCTRPPYGDYGDYWGQGTLVTVSS VL: QSALTQPASVSGSPGQSITISCTGTSSDVGGYNLVSWYQQHPGKAPKLMIYEGNKRPSGVSNRFSGSKSGNTASLTISGLQAEDEADYYCCSYAGSSTFPVVFGGGTKLTVL | 1.5 | 13.1
SARS-CoV-2 variant 1-28 (antibody, V domains shown) VH: EVQLLESGGGLVQPGGSLRLSCAASGFTFSSYGMSWVRQAPGKGLEWVSAISGSGGGTYYADSVKGRFTISRDNSKNTLYLQMNSLRAEDTAVYYCASSSSWQFDYWGQGTLVTVSS VL: QSALTQPASVSGSPGQSITISCTGTSSGVGSYNLVSWYQQHPGKAPKLMIYEGSQRPSGVSNRFSGSKSGNTASLTISGLQAEDEADYYCCSYAGSSTHYVFGGGTKLTVL | 1.1 | 113
SARS-CoV-2 variant 1-3 (antibody, V domains shown) VH: EVQLLESGGGLVQPGGSLRLSCAASGFTFSSQAMSWVRQAPGKGLEWVSAISGSGGGTYYADSVKGRFTISRDNSKNTLYLQMNSLRAEDTAVYYCAKDRRFGEFDPWGQGTLVTVSS VL: QSALTQPASVSGSPGQSITISCTGISSDVGSYNLVSWYQQHPGKAPKLMIYEGTKRPSGVSNRFSGSKSGNTASLTISGLQAEDEADYYCCSYAGSSSFVVFGGGTKLTVL | 1.8 | 109
SARS-CoV-2 variant 1-4 (antibody, V domains shown) VH: EVQLLESGGGLVQPGGSLRLSCAASGFTFSSQAMSWVRQAPGKGLEWVSAISGSGGGTYYADSVKGRFTISRDNSKNTLYLQMNSLRAEDTAVYYCAKDRRFGEFDPWGQGTLVTVSS VL: QSALTQPASVSGSPGQSITISCTGTSSDVGTYNLVSWYQQHPGKAPKLMIYEGSQRPSGVSNRFSGSKSGNTASLTISGLQAEDEADYYCCSYAGSSSFVVFGGGTKLTVL | 1.4 | 138
